Test results reported in patent US6806079.

Tests used:
Rhesus-D antigen (human) = Rhesus-D antigen (human) (UniProt Q02161); test: phage bound to Rh-D positive red blood cells, eluted with citric acid, titred on ampicillin plates; titre prior to selection 1.0 × 10^8
[1] = target: bovine thyroglobulin (Sigma) (bovine) (UniProt P01267); test: phage ELISA, 200 µg/ml thyroglobulin coating
[2] = target: T1, turkey egg-white lysozyme (turkey, UniProt P00703 19-147); test: heading of the table of deduced sequences
T1 construct: also called turkey egg lysozyme; turkey lysozyme
T1 sequence (P00703 19-147 limits assumed): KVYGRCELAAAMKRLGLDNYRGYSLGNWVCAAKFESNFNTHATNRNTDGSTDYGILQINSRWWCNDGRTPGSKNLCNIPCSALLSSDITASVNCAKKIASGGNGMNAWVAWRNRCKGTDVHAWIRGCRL

bovine thyroglobulin (Sigma) (bovine), sequence (P01267 20-2769 limits assumed): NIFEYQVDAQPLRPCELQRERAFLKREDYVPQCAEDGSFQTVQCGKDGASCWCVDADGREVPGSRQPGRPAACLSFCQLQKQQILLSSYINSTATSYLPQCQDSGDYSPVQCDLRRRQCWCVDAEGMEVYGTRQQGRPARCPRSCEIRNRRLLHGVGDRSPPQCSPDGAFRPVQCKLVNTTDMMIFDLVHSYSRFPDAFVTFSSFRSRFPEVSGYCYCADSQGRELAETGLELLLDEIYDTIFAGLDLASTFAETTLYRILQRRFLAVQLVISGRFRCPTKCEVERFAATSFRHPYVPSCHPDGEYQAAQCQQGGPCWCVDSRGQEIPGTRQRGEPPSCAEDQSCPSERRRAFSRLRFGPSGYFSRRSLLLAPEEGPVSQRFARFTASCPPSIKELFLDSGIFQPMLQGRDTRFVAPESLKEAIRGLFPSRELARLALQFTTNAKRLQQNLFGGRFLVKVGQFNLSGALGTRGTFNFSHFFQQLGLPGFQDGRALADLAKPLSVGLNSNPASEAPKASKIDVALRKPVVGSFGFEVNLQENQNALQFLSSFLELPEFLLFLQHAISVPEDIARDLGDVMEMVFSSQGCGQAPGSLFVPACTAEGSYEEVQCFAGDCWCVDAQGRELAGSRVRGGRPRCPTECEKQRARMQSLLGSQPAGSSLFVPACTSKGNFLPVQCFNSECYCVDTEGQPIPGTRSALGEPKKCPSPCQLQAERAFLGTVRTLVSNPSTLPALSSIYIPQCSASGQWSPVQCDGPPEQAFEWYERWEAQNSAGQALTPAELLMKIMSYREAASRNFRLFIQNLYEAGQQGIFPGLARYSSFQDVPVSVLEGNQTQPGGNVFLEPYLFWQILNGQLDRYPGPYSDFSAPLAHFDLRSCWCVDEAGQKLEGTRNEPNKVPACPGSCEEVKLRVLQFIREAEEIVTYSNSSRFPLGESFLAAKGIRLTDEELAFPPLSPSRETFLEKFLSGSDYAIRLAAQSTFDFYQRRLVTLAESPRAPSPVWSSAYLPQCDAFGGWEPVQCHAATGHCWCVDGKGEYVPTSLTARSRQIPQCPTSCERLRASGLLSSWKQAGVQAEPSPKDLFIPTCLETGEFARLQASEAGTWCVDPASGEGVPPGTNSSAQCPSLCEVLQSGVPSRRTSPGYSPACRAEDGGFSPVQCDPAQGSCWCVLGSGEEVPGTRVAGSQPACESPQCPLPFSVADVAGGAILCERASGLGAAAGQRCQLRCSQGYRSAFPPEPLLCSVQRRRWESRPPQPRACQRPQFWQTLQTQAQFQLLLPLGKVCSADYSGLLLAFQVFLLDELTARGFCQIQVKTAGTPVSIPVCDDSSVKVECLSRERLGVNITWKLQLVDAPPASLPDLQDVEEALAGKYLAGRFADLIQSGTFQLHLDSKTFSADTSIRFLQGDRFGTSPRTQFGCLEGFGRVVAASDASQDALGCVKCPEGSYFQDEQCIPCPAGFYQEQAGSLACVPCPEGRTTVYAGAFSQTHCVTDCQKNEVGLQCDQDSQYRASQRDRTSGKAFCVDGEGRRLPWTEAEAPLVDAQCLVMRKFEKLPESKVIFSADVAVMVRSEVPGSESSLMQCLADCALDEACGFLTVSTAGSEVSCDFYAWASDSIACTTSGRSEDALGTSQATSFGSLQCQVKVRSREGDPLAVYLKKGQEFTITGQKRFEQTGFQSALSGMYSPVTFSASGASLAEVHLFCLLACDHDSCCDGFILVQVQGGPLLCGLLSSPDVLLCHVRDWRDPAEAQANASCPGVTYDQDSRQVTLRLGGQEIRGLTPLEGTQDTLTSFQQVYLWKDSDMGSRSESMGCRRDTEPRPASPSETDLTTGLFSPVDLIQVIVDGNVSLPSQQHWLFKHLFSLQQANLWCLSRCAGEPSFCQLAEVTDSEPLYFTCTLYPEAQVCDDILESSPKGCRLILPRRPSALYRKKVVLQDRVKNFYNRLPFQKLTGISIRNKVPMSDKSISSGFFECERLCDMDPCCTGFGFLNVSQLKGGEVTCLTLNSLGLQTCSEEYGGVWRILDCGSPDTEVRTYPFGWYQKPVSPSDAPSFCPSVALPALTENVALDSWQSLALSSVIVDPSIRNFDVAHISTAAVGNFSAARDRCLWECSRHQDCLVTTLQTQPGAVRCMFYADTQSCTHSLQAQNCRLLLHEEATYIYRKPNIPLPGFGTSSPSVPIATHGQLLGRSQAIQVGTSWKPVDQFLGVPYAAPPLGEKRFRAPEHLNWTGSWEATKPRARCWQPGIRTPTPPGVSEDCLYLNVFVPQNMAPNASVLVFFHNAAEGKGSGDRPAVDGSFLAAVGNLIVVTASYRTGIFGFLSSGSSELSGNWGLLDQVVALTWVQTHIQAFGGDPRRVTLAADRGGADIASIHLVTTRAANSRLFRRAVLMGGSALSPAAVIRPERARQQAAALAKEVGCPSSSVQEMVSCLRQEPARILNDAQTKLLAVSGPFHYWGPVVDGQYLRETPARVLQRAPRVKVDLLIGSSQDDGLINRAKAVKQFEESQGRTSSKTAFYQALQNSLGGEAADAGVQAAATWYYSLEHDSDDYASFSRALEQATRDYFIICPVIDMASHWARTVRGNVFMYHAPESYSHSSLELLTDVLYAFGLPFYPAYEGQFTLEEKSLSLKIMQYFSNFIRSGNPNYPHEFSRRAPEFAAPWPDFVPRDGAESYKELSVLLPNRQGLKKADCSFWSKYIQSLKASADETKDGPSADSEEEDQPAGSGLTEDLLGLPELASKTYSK
Rhesus-D antigen (human), sequence (Q02161 2-417): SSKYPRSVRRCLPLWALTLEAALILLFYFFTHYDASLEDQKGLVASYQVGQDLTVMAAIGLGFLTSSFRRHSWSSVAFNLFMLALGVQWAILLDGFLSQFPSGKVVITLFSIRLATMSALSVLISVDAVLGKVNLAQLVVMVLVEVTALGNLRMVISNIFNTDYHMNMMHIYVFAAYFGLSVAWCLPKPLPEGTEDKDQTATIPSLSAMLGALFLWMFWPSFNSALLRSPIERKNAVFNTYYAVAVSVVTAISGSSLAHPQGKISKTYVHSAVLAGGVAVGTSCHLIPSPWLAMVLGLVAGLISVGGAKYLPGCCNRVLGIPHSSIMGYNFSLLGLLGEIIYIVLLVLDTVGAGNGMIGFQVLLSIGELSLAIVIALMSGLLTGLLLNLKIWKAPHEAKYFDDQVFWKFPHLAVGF

## Fog-B Fab fragment displayed on the surface of phage (pHEN1)
Rhesus-D antigen (human)
  titre of phage eluted after selection on Rh-D positive cells: 6e+06

## phage control (vector pCAT3) (from UniProt P03661 19-424)
[1]
  ELISA OD: 0.07 O.D.

B1: Lysozyme binder VH14.1 / VL14.1 (scFv, V domains shown)
VH: QVQLQESGPGLVKPSETLSLVCTVSGGSLSFSYWGWIRQPPGKGLEWIGYISHRGTDYNSSLQSRVTISADTSKNQFSLKLSSVTAADTAVYYCARSFSNSFFFGYWGQGT
VL: SSELTQDPAVSVAFGQTVRITCQGDSLRSSYASWYQQKPGQAPLLVIYGENSRPSGIPDRFSGSSSGNTASLTITGAQAEDEADYYCNSRDSRGTHLEVFGG
notes: Human scFv in pHEN1 on phage; Paired by common number
[2]
  binding result: binds
